# Test results reported in US20260176319A1 (KALLYOPE, published 2026).
# Starred links: 1 amine or outer side, 2 acyl side, 3 side chain; linkers in the order of their positions; H or OH if unused. Non-standard residues stand in square brackets, D forms with d. *: point of attachment. Trp(6-Me) = Cc1ccc2c(C[C@H](N)C(=O)O)c[nH]c2c1; Trp(7-F) = N[C@@H](Cc1c[nH]c2c(F)cccc12)C(=O)O; Trp(7-Me) = Cc1cccc2c(C[C@H](N)C(=O)O)c[nH]c12; d(γGlu) = O=C(O)[C@@H](CCC(=O)[*:2])N[*:1]; C18 diacid = O=C(O)CCCCCCCCCCCCCCCCC(=O)*; γGlu = O=C(O)[C@H](CCC(=O)[*:2])N[*:1]; 2Nal = N[C@@H](Cc1ccc2ccccc2c1)C(=O)O; Palmitoyl = CCCCCCCCCCCCCCCC(=O)*; 3Pal = N[C@@H](Cc1cccnc1)C(=O)O; 4Pal = N[C@@H](Cc1ccncc1)C(=O)O; Nle = CCCC[C@H](N)C(=O)O; AEEA = NCCOCCOCC(=O)O; Aib = CC(C)(N)C(=O)O; Ava = NCCCCC(=O)O; Sar = CNCC(=O)O
# B1: Peptide 86 (peptide)
# peptide: {C18 diacid}-[γGlu][AEEA][AEEA]GNH[Trp(7-F)]AV[dA]HL[Nle]-NH2
# SMILES: CCCC[C@H](NC(=O)[C@H](CC(C)C)NC(=O)[C@H](Cc1c[nH]cn1)NC(=O)[C@@H](C)NC(=O)[C@@H](NC(=O)[C@H](C)NC(=O)[C@H](Cc1c[nH]c2c(F)cccc12)NC(=O)[C@H](Cc1c[nH]cn1)NC(=O)[C@H](CC(N)=O)NC(=O)CNC(=O)COCCOCCNC(=O)COCCOCCNC(=O)CC[C@H](NC(=O)CCCCCCCCCCCCCCCCC(=O)O)C(=O)O)C(C)C)C(N)=O
# B2: Peptide 89 (peptide)
# peptide: Palmitoyl-[γGlu][AEEA][AEEA]GRHWAV[dA]HL[Nle]-NH2
# SMILES: CCCCCCCCCCCCCCCC(=O)N[C@@H](CCC(=O)NCCOCCOCC(=O)NCCOCCOCC(=O)NCC(=O)N[C@@H](CCCNC(=N)N)C(=O)N[C@@H](Cc1c[nH]cn1)C(=O)N[C@@H](Cc1c[nH]c2ccccc12)C(=O)N[C@@H](C)C(=O)N[C@H](C(=O)N[C@H](C)C(=O)N[C@@H](Cc1c[nH]cn1)C(=O)N[C@@H](CC(C)C)C(=O)N[C@@H](CCCC)C(N)=O)C(C)C)C(=O)O
# B3: Peptide 95 (peptide)
# peptide: {C18 diacid}-[γGlu][AEEA][AEEA][AEEA][AEEA]GN[3Pal][Trp(7-Me)]AV[dA]HL[Nle]-NH2
# SMILES: CCCC[C@H](NC(=O)[C@H](CC(C)C)NC(=O)[C@H](Cc1c[nH]cn1)NC(=O)[C@@H](C)NC(=O)[C@@H](NC(=O)[C@H](C)NC(=O)[C@H](Cc1c[nH]c2c(C)cccc12)NC(=O)[C@H](Cc1cccnc1)NC(=O)[C@H](CC(N)=O)NC(=O)CNC(=O)COCCOCCNC(=O)COCCOCCNC(=O)COCCOCCNC(=O)COCCOCCNC(=O)CC[C@H](NC(=O)CCCCCCCCCCCCCCCCC(=O)O)C(=O)O)C(C)C)C(N)=O
# B4: Peptide 88 (peptide)
# peptide: {C18 diacid}-[γGlu][AEEA][AEEA]GRHWAV[dA]HL[Nle]-NH2
# SMILES: CCCC[C@H](NC(=O)[C@H](CC(C)C)NC(=O)[C@H](Cc1c[nH]cn1)NC(=O)[C@@H](C)NC(=O)[C@@H](NC(=O)[C@H](C)NC(=O)[C@H](Cc1c[nH]c2ccccc12)NC(=O)[C@H](Cc1c[nH]cn1)NC(=O)[C@H](CCCNC(=N)N)NC(=O)CNC(=O)COCCOCCNC(=O)COCCOCCNC(=O)CC[C@H](NC(=O)CCCCCCCCCCCCCCCCC(=O)O)C(=O)O)C(C)C)C(N)=O
# B5: Peptide 79 (peptide)
# peptide: {C18 diacid}-[d(γGlu)][AEEA][AEEA]GNH[Trp(6-Me)]AV[dA]HL[Nle]-NH2
# SMILES: CCCC[C@H](NC(=O)[C@H](CC(C)C)NC(=O)[C@H](Cc1c[nH]cn1)NC(=O)[C@@H](C)NC(=O)[C@@H](NC(=O)[C@H](C)NC(=O)[C@H](Cc1c[nH]c2cc(C)ccc12)NC(=O)[C@H](Cc1c[nH]cn1)NC(=O)[C@H](CC(N)=O)NC(=O)CNC(=O)COCCOCCNC(=O)COCCOCCNC(=O)CC[C@@H](NC(=O)CCCCCCCCCCCCCCCCC(=O)O)C(=O)O)C(C)C)C(N)=O
# B6: Peptide 82 (peptide)
# peptide: {C18 diacid}-[d(γGlu)][AEEA][AEEA]GNHWAV[dA]HL[Nle][Aib]-NH2
# SMILES: CCCC[C@H](NC(=O)[C@H](CC(C)C)NC(=O)[C@H](Cc1c[nH]cn1)NC(=O)[C@@H](C)NC(=O)[C@@H](NC(=O)[C@H](C)NC(=O)[C@H](Cc1c[nH]c2ccccc12)NC(=O)[C@H](Cc1c[nH]cn1)NC(=O)[C@H](CC(N)=O)NC(=O)CNC(=O)COCCOCCNC(=O)COCCOCCNC(=O)CC[C@@H](NC(=O)CCCCCCCCCCCCCCCCC(=O)O)C(=O)O)C(C)C)C(=O)NC(C)(C)C(N)=O
# B7: Peptide 94 (peptide)
# peptide: Palmitoyl-[γGlu][AEEA][AEEA]GN[4Pal]WAV[dA]HL[Nle]-NH2
# SMILES: CCCCCCCCCCCCCCCC(=O)N[C@@H](CCC(=O)NCCOCCOCC(=O)NCCOCCOCC(=O)NCC(=O)N[C@@H](CC(N)=O)C(=O)N[C@@H](Cc1ccncc1)C(=O)N[C@@H](Cc1c[nH]c2ccccc12)C(=O)N[C@@H](C)C(=O)N[C@H](C(=O)N[C@H](C)C(=O)N[C@@H](Cc1c[nH]cn1)C(=O)N[C@@H](CC(C)C)C(=O)N[C@@H](CCCC)C(N)=O)C(C)C)C(=O)O
# B8: Peptide 83 (peptide)
# peptide: {C18 diacid}-[d(γGlu)][AEEA][AEEA][AEEA][AEEA]GN[3Pal]WAV[dA]HL[Nle]-NH2
# SMILES: CCCC[C@H](NC(=O)[C@H](CC(C)C)NC(=O)[C@H](Cc1c[nH]cn1)NC(=O)[C@@H](C)NC(=O)[C@@H](NC(=O)[C@H](C)NC(=O)[C@H](Cc1c[nH]c2ccccc12)NC(=O)[C@H](Cc1cccnc1)NC(=O)[C@H](CC(N)=O)NC(=O)CNC(=O)COCCOCCNC(=O)COCCOCCNC(=O)COCCOCCNC(=O)COCCOCCNC(=O)CC[C@@H](NC(=O)CCCCCCCCCCCCCCCCC(=O)O)C(=O)O)C(C)C)C(N)=O
# B9: Peptide 85 (peptide)
# peptide: {C18 diacid}-[γGlu][AEEA][AEEA]GNH[Trp(7-Me)]AV[dA]HL[Nle]-NH2
# SMILES: CCCC[C@H](NC(=O)[C@H](CC(C)C)NC(=O)[C@H](Cc1c[nH]cn1)NC(=O)[C@@H](C)NC(=O)[C@@H](NC(=O)[C@H](C)NC(=O)[C@H](Cc1c[nH]c2c(C)cccc12)NC(=O)[C@H](Cc1c[nH]cn1)NC(=O)[C@H](CC(N)=O)NC(=O)CNC(=O)COCCOCCNC(=O)COCCOCCNC(=O)CC[C@H](NC(=O)CCCCCCCCCCCCCCCCC(=O)O)C(=O)O)C(C)C)C(N)=O
# B10: Peptide 90 (peptide)
# peptide: {C18 diacid}-[γGlu][AEEA][AEEA][AEEA][AEEA]GNH[Trp(7-Me)]AV[dA]HL[Nle]-NH2
# SMILES: CCCC[C@H](NC(=O)[C@H](CC(C)C)NC(=O)[C@H](Cc1c[nH]cn1)NC(=O)[C@@H](C)NC(=O)[C@@H](NC(=O)[C@H](C)NC(=O)[C@H](Cc1c[nH]c2c(C)cccc12)NC(=O)[C@H](Cc1c[nH]cn1)NC(=O)[C@H](CC(N)=O)NC(=O)CNC(=O)COCCOCCNC(=O)COCCOCCNC(=O)COCCOCCNC(=O)COCCOCCNC(=O)CC[C@H](NC(=O)CCCCCCCCCCCCCCCCC(=O)O)C(=O)O)C(C)C)C(N)=O
# B11: Peptide 87 (peptide)
# peptide: Palmitoyl-[γGlu][AEEA][AEEA]GNH[Trp(7-F)]AV[dA]HL[Nle]-NH2
# SMILES: CCCCCCCCCCCCCCCC(=O)N[C@@H](CCC(=O)NCCOCCOCC(=O)NCCOCCOCC(=O)NCC(=O)N[C@@H](CC(N)=O)C(=O)N[C@@H](Cc1c[nH]cn1)C(=O)N[C@@H](Cc1c[nH]c2c(F)cccc12)C(=O)N[C@@H](C)C(=O)N[C@H](C(=O)N[C@H](C)C(=O)N[C@@H](Cc1c[nH]cn1)C(=O)N[C@@H](CC(C)C)C(=O)N[C@@H](CCCC)C(N)=O)C(C)C)C(=O)O
# B12: Peptide 81 (peptide)
# peptide: {C18 diacid}-[d(γGlu)][AEEA][AEEA]GNH[Trp(7-Me)]AV[dA]HL[Nle][Sar]-NH2
# SMILES: CCCC[C@H](NC(=O)[C@H](CC(C)C)NC(=O)[C@H](Cc1c[nH]cn1)NC(=O)[C@@H](C)NC(=O)[C@@H](NC(=O)[C@H](C)NC(=O)[C@H](Cc1c[nH]c2c(C)cccc12)NC(=O)[C@H](Cc1c[nH]cn1)NC(=O)[C@H](CC(N)=O)NC(=O)CNC(=O)COCCOCCNC(=O)COCCOCCNC(=O)CC[C@@H](NC(=O)CCCCCCCCCCCCCCCCC(=O)O)C(=O)O)C(C)C)C(=O)N(C)CC(N)=O
# B13: Peptide 80 (peptide)
# peptide: {C18 diacid}-[d(γGlu)][Ava]GNHWAV[dA]HL[Nle]-NH2
# SMILES: CCCC[C@H](NC(=O)[C@H](CC(C)C)NC(=O)[C@H](Cc1c[nH]cn1)NC(=O)[C@@H](C)NC(=O)[C@@H](NC(=O)[C@H](C)NC(=O)[C@H](Cc1c[nH]c2ccccc12)NC(=O)[C@H](Cc1c[nH]cn1)NC(=O)[C@H](CC(N)=O)NC(=O)CNC(=O)CCCCNC(=O)CC[C@@H](NC(=O)CCCCCCCCCCCCCCCCC(=O)O)C(=O)O)C(C)C)C(N)=O
# B14: Peptide 93 (peptide)
# peptide: Palmitoyl-[γGlu][AEEA][AEEA]GNH[2Nal]AVAHL[Nle]-NH2
# SMILES: CCCCCCCCCCCCCCCC(=O)N[C@@H](CCC(=O)NCCOCCOCC(=O)NCCOCCOCC(=O)NCC(=O)N[C@@H](CC(N)=O)C(=O)N[C@@H](Cc1c[nH]cn1)C(=O)N[C@@H](Cc1ccc2ccccc2c1)C(=O)N[C@@H](C)C(=O)N[C@H](C(=O)N[C@@H](C)C(=O)N[C@@H](Cc1c[nH]cn1)C(=O)N[C@@H](CC(C)C)C(=O)N[C@@H](CCCC)C(N)=O)C(C)C)C(=O)O
# B15: Peptide 84 (peptide)
# peptide: {C18 diacid}-[d(γGlu)][AEEA][AEEA]GNH[Trp(6-Me)]AV[dA]HL[Nle][Sar]-NH2
# SMILES: CCCC[C@H](NC(=O)[C@H](CC(C)C)NC(=O)[C@H](Cc1c[nH]cn1)NC(=O)[C@@H](C)NC(=O)[C@@H](NC(=O)[C@H](C)NC(=O)[C@H](Cc1c[nH]c2cc(C)ccc12)NC(=O)[C@H](Cc1c[nH]cn1)NC(=O)[C@H](CC(N)=O)NC(=O)CNC(=O)COCCOCCNC(=O)COCCOCCNC(=O)CC[C@@H](NC(=O)CCCCCCCCCCCCCCCCC(=O)O)C(=O)O)C(C)C)C(=O)N(C)CC(N)=O
# B16: Peptide 91 (peptide)
# peptide: Palmitoyl-[γGlu][AEEA][AEEA][AEEA][AEEA]GN[3Pal][Trp(7-Me)]AV[dA]HL[Nle]-NH2
# SMILES: CCCCCCCCCCCCCCCC(=O)N[C@@H](CCC(=O)NCCOCCOCC(=O)NCCOCCOCC(=O)NCCOCCOCC(=O)NCCOCCOCC(=O)NCC(=O)N[C@@H](CC(N)=O)C(=O)N[C@@H](Cc1cccnc1)C(=O)N[C@@H](Cc1c[nH]c2c(C)cccc12)C(=O)N[C@@H](C)C(=O)N[C@H](C(=O)N[C@H](C)C(=O)N[C@@H](Cc1c[nH]cn1)C(=O)N[C@@H](CC(C)C)C(=O)N[C@@H](CCCC)C(N)=O)C(C)C)C(=O)O
# Biological target: human GRP receptor (human, UniProt P30550 1-384)
# Test: cell-based or functional assay
# Sequence of human GRP receptor (P30550 whole entry): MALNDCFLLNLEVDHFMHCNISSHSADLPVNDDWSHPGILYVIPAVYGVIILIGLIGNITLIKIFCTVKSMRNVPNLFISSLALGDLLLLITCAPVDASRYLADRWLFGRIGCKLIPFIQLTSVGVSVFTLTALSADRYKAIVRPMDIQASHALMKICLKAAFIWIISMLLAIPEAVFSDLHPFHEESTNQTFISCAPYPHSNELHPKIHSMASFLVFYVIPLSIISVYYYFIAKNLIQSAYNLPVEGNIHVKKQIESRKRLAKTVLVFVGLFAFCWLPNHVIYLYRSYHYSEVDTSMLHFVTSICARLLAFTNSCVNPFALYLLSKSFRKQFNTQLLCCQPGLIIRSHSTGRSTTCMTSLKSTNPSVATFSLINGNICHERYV
row,hIP1 GRPR EC50 [nM],Binder
1,26.8,GNHWAVXHLX (Gly-Asn-His-Trp-Ala-Val-D-Ala-His-Leu-Nle-NH2) [Peptide 6]
2,17.6,B1
3,1.57,B2
4,110,B3
5,5.51,B4
6,529,B5
7,1230,B6
8,1.45,B7
9,109,B8
10,14.7,B9
11,12.6,B10
12,1.73,B11
13,505,B12
14,5.11,B13
15,6.95,B14
16,2550,B15
17,3.72,B16
